Each block holds one binder with its values, some of them ahead of it.
Assays:
Details in all cases: both partners purified
[1] = biological target: T1, MukB Hinge, purified (36 kDa) (E. coli, UniProt P22523 566-863); assay: SEC; Superose 6 10/300 GL; 50 mM HEPES pH 7.5, 100 mM NaCl, 1 mM DTT, 1 mM EDTA, 5 mM MgCl2; MatPΔC18 (73 μM) and/or Hinge (15 μM); fractions on SDS-PAGE
T1 construct: MukB, E. coli, residues 566-863 (Hinge construct); printed size 36 kDa; details of purification are in Supplementary Methods; source: E. coli C3013I, pET vector, purified
T1 sequence (looked up): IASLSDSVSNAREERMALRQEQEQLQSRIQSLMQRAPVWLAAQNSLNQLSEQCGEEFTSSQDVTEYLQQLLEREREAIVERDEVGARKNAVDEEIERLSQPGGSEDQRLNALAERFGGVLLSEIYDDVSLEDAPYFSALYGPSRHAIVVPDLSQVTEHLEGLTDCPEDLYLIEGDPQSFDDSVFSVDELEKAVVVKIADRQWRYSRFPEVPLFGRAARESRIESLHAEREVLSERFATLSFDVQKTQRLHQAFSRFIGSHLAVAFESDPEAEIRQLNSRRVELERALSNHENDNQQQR

[2] = biological target: T2, Hinge–Flag (E. coli, UniProt P22523 566-863); assay: co-IP; MukB–Flag or Hinge–Flag from cell lysate bound to anti-Flag M2 Affinity gel and washed; purified MatPΔC18-6×His added in 50 mM HEPES pH 7.5, 100 mM NaCl, 45 min, 4 °C; SDS-PAGE
T2 construct: MukB, E. coli, residues 566-863 (Hinge construct); printed MW with Flag 35.2 kDa; Hinge proteins gave 2 bands on SDS-PAGE, maybe because of proteolytic cleavage; also called FLAG-tagged Hinge
T2 sequence (looked up): T1 sequence (looked up)

[3] = biological target: T3, MukB–Flag (E. coli, UniProt P22523 1-1486); assay: as above
T3 construct: MukB, E. coli; printed MW with Flag 171.7 kDa; The printed mass fits the whole protein; also called FLAG-tagged MukB
T3 sequence (looked up): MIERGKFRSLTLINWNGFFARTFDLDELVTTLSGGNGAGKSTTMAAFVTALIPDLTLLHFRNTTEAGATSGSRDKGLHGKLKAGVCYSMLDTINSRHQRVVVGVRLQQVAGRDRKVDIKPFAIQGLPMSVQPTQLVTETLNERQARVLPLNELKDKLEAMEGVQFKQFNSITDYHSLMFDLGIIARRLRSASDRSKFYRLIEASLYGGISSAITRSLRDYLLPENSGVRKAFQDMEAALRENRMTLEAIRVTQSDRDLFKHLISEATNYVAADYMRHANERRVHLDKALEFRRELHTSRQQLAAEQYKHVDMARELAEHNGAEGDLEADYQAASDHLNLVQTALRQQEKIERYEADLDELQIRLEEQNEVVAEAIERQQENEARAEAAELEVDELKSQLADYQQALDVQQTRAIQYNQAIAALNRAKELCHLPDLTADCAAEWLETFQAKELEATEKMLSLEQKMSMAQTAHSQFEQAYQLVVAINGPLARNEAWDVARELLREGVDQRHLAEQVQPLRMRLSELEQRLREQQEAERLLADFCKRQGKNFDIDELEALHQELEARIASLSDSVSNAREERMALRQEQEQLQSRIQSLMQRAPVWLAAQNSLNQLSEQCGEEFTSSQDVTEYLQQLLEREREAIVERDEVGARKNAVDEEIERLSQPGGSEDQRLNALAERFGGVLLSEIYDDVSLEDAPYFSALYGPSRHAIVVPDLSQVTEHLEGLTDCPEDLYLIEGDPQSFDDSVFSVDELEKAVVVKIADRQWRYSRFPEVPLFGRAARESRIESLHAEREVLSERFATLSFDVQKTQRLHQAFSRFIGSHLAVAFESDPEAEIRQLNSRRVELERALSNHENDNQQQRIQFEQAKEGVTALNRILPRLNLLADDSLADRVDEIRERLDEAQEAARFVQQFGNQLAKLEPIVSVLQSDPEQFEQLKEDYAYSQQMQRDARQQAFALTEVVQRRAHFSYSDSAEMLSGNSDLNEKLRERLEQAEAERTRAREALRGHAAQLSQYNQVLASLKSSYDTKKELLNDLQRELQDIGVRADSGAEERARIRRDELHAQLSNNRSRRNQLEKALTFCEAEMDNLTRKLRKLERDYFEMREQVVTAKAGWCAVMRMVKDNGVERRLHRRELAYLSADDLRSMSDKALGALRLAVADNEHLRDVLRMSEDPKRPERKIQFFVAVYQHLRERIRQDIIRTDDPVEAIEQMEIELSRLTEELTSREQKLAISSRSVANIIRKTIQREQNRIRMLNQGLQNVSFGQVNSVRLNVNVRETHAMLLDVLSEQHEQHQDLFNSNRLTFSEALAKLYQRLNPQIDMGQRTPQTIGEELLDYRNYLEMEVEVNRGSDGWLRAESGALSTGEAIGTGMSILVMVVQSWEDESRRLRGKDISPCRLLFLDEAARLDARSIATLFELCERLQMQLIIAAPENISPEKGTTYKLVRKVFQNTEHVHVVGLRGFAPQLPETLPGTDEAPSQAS

[4] = biological target: T4, MukB-6×His, purified (E. coli, UniProt P22523 1-1486); assay: co-IP; MatPΔC18–Flag from cell lysate bound to anti-Flag M2 Affinity gel and washed; purified MukB, MukE, MukF added as indicated in 50 mM HEPES pH 7.5, 100 mM NaCl, 45 min, 4 °C; SDS-PAGE
T4 construct: MukB, E. coli; printed MW with 6×His 172.6 kDa; The printed mass fits the whole protein; source: E. coli C3013I, pET vector, purified
T4 sequence (looked up): T3 sequence (looked up)

binding result [1]: binds
binding result [2]: binds
binding result [3]: binds
B1: MatPΔC18-6×His, purified (domain or fragment, E. coli, UniProt P0A8N0 1-132, looked up)
chain: MKYQQLENLESGWKWKYLVKKHREGELITRYIEASAAQEAVDVLLSLENEPVLVNGWIDKHMNPELVNRMKQTIRARRKRHFNAEHQHTRKKSIDLEFIVWQRLAGLAQRRGKTLSETIVQLIEDAENKEKY
notes: MatP, E. coli, truncated by its 18 C-terminal amino-acid residues; printed MW with 6×His 18.3 kDa; source: E. coli C3013I, pET vector, purified

binding result [4]: binds
B2: MatPΔC18–Flag (domain or fragment, E. coli, UniProt P0A8N0 1-132, looked up)
chain: B1 chain
notes: MatP, E. coli, truncated by its 18 C-terminal amino-acid residues; printed MW with Flag 16.9 kDa; also called FLAG-tagged MatPΔC18
